We go through one molecule from US6495314 (Scripps Research, dated 2002).

In test [1] the target is T1, synthetic murine cCrk N-terminal SH3 domain (residues 134-191) (murine, UniProt Q64010 134-191).
T1 construct: Made by total chemical synthesis and folded in HEPES/NaCl buffer; also called cCrk(134-191); c-Crk SH3
Put plainly: tryptophan fluorescence titration in solution, 12 hours incubation. The procedure:
The resulting synthetic protein domain was then assayed for its affinity for two different proline-rich peptides. […] This change in solvent exposure leads to an increase in the fluorescence intensity of the tryptophan sidechain which can be monitored as a function of increasing ligand concentration (Feng et al. *Science* 1994.266, 1241–1245).
1994, 3, 1261–1266. The purified and lyophilized 58 residue polypeptide chain (0.2 mg) was folded by dissolving in 0.6 mL of 20 mM Hepes, 60 mM NaCl, pH 7.3 to produce a folded protein solution (~50 μM).

A further test concerns the target BSA (UniProt P02769 25-607). Put plainly: C3G peptide affinity column, stepwise NaCl washes, A280 and mass spectrometry. The procedure:
The column was washed with 4 mL each of 50 mM NaCl, 100 mM NaCl, 200 mM NaCl, 300 mM NaCl, 400 mM NaCl, 500 mM NaCl and 1000 mM NaCl, 0.1 M phosphate, pH 7.0 buffer. The column was then washed with 1 M NH_2OH 200 mM NH_4CO_3 pH 6.0 (4 mL) and finally eluted in 6M Gn.HCl 100 mM phosphate pH 6.5 (4 mL). Samples from all column fractions were monitored by absorbance at 280 nm and by HPLC.

Chain of BSA (P02769 25-607 limits assumed): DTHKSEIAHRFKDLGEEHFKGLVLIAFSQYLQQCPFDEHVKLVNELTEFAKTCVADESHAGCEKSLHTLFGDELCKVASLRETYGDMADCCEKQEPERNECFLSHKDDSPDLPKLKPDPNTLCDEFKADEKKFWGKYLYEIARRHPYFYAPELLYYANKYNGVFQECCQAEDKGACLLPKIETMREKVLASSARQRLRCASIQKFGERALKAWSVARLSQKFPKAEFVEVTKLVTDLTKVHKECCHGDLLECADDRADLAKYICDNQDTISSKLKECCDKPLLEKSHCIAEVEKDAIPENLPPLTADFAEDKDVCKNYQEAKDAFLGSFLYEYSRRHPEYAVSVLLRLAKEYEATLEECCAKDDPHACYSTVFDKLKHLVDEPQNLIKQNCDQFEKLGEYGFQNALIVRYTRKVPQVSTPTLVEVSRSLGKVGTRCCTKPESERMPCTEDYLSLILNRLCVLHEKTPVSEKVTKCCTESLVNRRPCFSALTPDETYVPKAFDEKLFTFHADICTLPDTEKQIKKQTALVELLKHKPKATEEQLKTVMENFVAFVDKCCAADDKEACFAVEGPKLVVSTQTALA

B1: Ac-CWAcp-PPPALPPKKR.amide, C3G-derived peptide designed for attachment to an affinity column (peptide)
peptide: CWPPPALPPKKR
modifications: N-terminal acetyl; ε-aminocaproic acid (Acp, B) at position 3; C-terminal amide; on the column the Cys side chain is coupled to iodoacetyl agarose (Sulfolink)
notes: also called Acetyl-CWAcp-C3G; Ac-CWBPPPALPPKKR.amide
B1 displayed a Kd in test [1] of 2400 nM. Further, in the test with BSA, the binding result is listed as “no binding”.
